From patent US20220056139A1 (UNIVERSITY OF SOUTHERN CALIFORNIA, published 2022)

B1: huLym-1-B-BB3z CAR (receptor)
chain: EVQLVESGGGLVQPGRSLRLTCTASGFSLTSYGVHWVRQPPGKGLEWLAVIWSDGSTTYNSALKSRLTISKDNSKSQVYLQMNSLRAEDTAVYYCARHYGSTLAFASWGQGTLVTVSSGGGGSGGGGSGGGGSDIQMTQSPSSLSASVGDRVTITCRASVNIYSYLAWYQQKPGKAPNLLIYNAKILAEGVPSRFSGSGSGTDFTLTISSLQPEDFASYYCQHHYGTFTFGQGTKVEIKAVPPQQWALSTTTPAPRPPTPAPTIASQPLSLRPEACRPAAGGAVHTRGLDFACDIYIWAPLAGTCGVLLLSLVITLYCKRGRKKLLYIFKQPFMRPVQTTQEEDGCSCRFPEEEEGGCELRVKFSRSADAPAYKQGQNQLYNELNLGRREEYDVLDKRRGRDPEMGGKPRRKNPQEGLYNELQKDKMAEAYSEIGMKGERRRGKGHDGLYQGLSTATKDTYDALHMQALPP
B2: huLym-1-B-DAP CAR (Experiment 3, with 261 tag) (receptor)
chain: EVQLVESGGGLVQPGRSLRLTCTASGFSLTSYGVHWVRQPPGKGLEWLAVIWSDGSTTYNSALKSRLTISKDNSKSQVYLQMNSLRAEDTAVYYCARHYGSTLAFASWGQGTLVTVSSGGGGSGGGGSGGGGSDIQMTQSPSSLSASVGDRVTITCRASVNIYSYLAWYQQKPGKAPNLLIYNAKILAEGVPSRFSGSGSGTDFTLTISSLQPEDFASYYCQHHYGTFTFGQGTKVEIKAVPPQQWALSTTTPAPRPPTPAPTIASQPLSLRPEACRPAAGGAVHTRGLDFACDIYIWAPLAGTCGVLLLSLVITLYCLCARPRRSPAQDGKVYINMPGRGYFLGRLVPRGRGAAEAATRKQRITETESPYQELQGQRSDVYSDLNTQRPYYK

Molecular target: HLA-DR (human)
Test: cell-based or functional assay

Row | Binder | fold expansion of CAR T cells from days 7-14 [fold] | killing of Raji cells at 2:1 effector to target ratio, overnight co-culture [%]
1 | B1 | < 4 | 
2 | B2 |  | ~80
